# Experimental data published in publication PMC6488673, “Crystal structure of the Lin28-interacting module of human terminal uridylyltransferase that regulates let-7 expression”.
# T1: hTUT4_N;hLin28A (human;human, UniProt Q5TAX3;Q9H9Z2 253-578+611-723;1-209, internal_change|)
# T1 sequence 1: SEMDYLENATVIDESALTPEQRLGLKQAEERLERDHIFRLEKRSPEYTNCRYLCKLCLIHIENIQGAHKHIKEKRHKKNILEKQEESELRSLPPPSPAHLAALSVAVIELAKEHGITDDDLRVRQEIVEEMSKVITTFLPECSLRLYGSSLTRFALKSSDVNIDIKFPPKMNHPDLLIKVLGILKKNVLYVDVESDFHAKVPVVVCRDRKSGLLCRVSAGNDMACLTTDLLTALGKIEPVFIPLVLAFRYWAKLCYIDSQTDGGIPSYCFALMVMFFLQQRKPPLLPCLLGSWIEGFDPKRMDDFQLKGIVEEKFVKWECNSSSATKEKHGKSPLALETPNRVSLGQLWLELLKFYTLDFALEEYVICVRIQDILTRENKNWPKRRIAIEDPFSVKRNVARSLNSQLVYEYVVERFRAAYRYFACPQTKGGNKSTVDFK
# T1 sequence 2: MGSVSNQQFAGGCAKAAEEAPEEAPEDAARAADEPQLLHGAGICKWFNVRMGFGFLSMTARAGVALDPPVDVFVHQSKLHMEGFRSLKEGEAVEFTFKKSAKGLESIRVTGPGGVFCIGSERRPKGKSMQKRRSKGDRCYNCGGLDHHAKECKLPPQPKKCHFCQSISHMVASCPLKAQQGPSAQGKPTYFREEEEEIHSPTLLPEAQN
# B1: pre-let-7a-1 (structured_RNA)
# RNA: UGAGGUAGUAGGUUGUAUAGUUUUAGGGUCACACCCACCACUGGGAGAUAACUAUACAAUCUACUGUCUUUC
# Target: T1, hTUT4_N;hLin28A
# Experiment: EMSA; ternary complex; 300 nM each protein, 100 nM RNA; EMSA: 50 mM Tris-HCl pH 8.5, 100 mM NaCl, 10 mM MgCl2, 10 mM beta-mercaptoethanol, 10% glycerol, 10 min, room temperature; Tb(III) footprinting: same salts, 5%
# Conditions: protein: recombinant;recombinant; tags: C-terminal expression tag, residues 724-731 (pET22b, XhoI, Ni-NTA);N-terminal His tag (pET28b; Ni-NTA purified); copies: 1;1; label: none in EMSA (ethidium bromide stain); hairpin
binder,measurement,value
B1,binding result,binds
